Experimental data: patent US20150232852

Tests used:
[1] = target: D-glucagon (all D-amino acids), biotinylated (Homo sapiens) (UniProt P01275); assay: pulldown; conditions: D-DNA; 37 C, 1 mM Mg, 1 mM Ca, pH 7.4; direct pull-down
[2] = target: glucagon, L-form, biotinylated (glucagon1-29-AEEAc-AEEAc-biotin) (Homo sapiens) (UniProt P01275); assay: pulldown; conditions: L-DNA; 37 C, 1 mM Mg, 1 mM Ca, pH 7.4; direct pull-down, spiegelmer
Sequence of glucagon, L-form, biotinylated (glucagon1-29-AEEAc-AEEAc-biotin) (Homo sapiens) (P01275 53-81): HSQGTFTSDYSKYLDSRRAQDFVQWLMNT

Row | Sequence | Kd [1] | Kd [2]
1 | CGACTCGAGAGGAAAGGTTGGTAAAGGTTCGGTTGGATTCACTCGAGTCG [259-H6-001 (aptamer)] | 0.033 µM | 
2 | GCAGTGGGGAAATGGGAGGGCTAGGTGGAAGGAATCTGAGCTACTGC [257-E1-001 (spiegelmer)] |  | 0.179 µM
3 | GCAGTGGGGAAATGGGAGGGCTAGGTGGAAGGAATCTGAGCTACTGC [257-E1-001 (aptamer)] | 0.137 µM | 
